Experimental data taken from article PMC7083227 (Immunity, 2020).

Biological target: the molecule itself
Assay: non-reducing and reducing SDS-PAGE after surface biotinylation and anti-HA immunoprecipitation; cells surface biotinylated, lysed in 1% NP40 ± 10 mM iodoacetamide, HA-tagged protein precipitated with anti-HA resin, blot with streptavidin-HRP; with or without BTN3A1, with or without Zol

B1: HA-tagged BTN2A1 (surface biotinylation experiment) (natural protein, human, UniProt Q7KYR7 29-527, looked up)
chain: QFIVVGPTDPILATVGENTTLRCHLSPEKNAEDMEVRWFRSQFSPAVFVYKGGRERTEEQMEEYRGRTTFVSKDISRGSVALVIHNITAQENGTYRCYFQEGRSYDEAILHLVVAGLGSKPLISMRGHEDGGIRLECISRGWYPKPLTVWRDPYGGVAPALKEVSMPDADGLFMVTTAVIIRDKSVRNMSCSINNTLLGQKKESVIFIPESFMPSVSPCAVALPIIVVILMIPIAVCIYWINKLQKEKKILSGEKEFERETREIALKELEKERVQKEEELQVKEKLQEELRWRRTFLHAVDVVLDPDTAHPDLFLSEDRRSVRRCPFRHLGESVPDNPERFDSQPCVLGRESFASGKHYWEVEVENVIEWTVGVCRDSVERKGEVLLIPQNGFWTLEMHKGQYRAVSSPDRILPLKESLCRVGVFLDYEAGDVSFYNMRDRSHIYTCPRSAFSVPVRPFFRLGCEDSPIFICPALTGANGVTVPEEGLTLHRVGTHQSL
modifications: surface lysines biotinylated with EZ-Link Sulfo NHS-LC-biotin
notes: Butyrophilin-2A1 (BTN2A1), human; also called CHO-cell expressed BTN2A1; cell surface BTN2A1
For B1, the “stoichiometry N” value was 2.
